± gives the uncertainty stated by the source.
Assay: abundance fitness (aPCA) (normalised: wild type 0, dead -1); higher = more abundant; growth selection in yeast, the domain comes from the species named
Conditions: Homo sapiens

Substance | abundance fitness
SAFB-like transcription modulator R37V, Q9NWH9 | -1.06 ± 0.08
BAG family molecular chaperone regulator 3 F38W, O95817 | -0.665 ± 0.25
SAFB-like transcription modulator L25K, Q9NWH9 | -0.407 ± 0.11
BAG family molecular chaperone regulator 3 D20I, O95817 | -0.558 ± 0.37
SAFB-like transcription modulator L39T, Q9NWH9 | -0.631 ± 0.043
SAFB-like transcription modulator V44M, Q9NWH9 | -0.092 ± 0.058
SAFB-like transcription modulator D62S, Q9NWH9 | -0.191 ± 0.046
SAFB-like transcription modulator N38S, Q9NWH9 | -0.105 ± 0.048
BAG family molecular chaperone regulator 3 P55L, O95817 | -0.133 ± 0.095
BAG family molecular chaperone regulator 3 T46G, O95817 | -0.65 ± 0.075
SAFB-like transcription modulator T23V, Q9NWH9 | -0.049 ± 0.031
BAG family molecular chaperone regulator 3 D51V, O95817 | -0.666 ± 0.12
BAG family molecular chaperone regulator 3 Q33I, O95817 | -0.499 ± 0.35
SAFB-like transcription modulator I41Q, Q9NWH9 | -0.022 ± 0.082
BAG family molecular chaperone regulator 3 Q33G, O95817 | 0.128 ± 0.059
SAFB-like transcription modulator D62R, Q9NWH9 | -0.331 ± 0.052
BAG family molecular chaperone regulator 3 P37H, O95817 | 0.517 ± 0.18
BAG family molecular chaperone regulator 3 P21M, O95817 | 0.673 ± 0.18
SAFB-like transcription modulator L34Q, Q9NWH9 | -0.673 ± 0.057
SAFB-like transcription modulator N38Q, Q9NWH9 | -0.04 ± 0.046
BAG family molecular chaperone regulator 3 V54M, O95817 | 0.19 ± 0.22
BAG family molecular chaperone regulator 3 D20G, O95817 | 0.08 ± 0.06
SAFB-like transcription modulator S32W, Q9NWH9 | -0.108 ± 0.049
BAG family molecular chaperone regulator 3 G15M, O95817 | 0.142 ± 0.17
SAFB-like transcription modulator E33Q, Q9NWH9 | -0.111 ± 0.079

Substance | abundance fitness
SAFB-like transcription modulator K53P, Q9NWH9 | -0.778 ± 0.058
SAFB-like transcription modulator N38Y, Q9NWH9 | -0.455 ± 0.11
SAFB-like transcription modulator I28G, Q9NWH9 | -0.106 ± 0.064
SAFB-like transcription modulator I66M, Q9NWH9 | -0.316 ± 0.14
SAFB-like transcription modulator D62Y, Q9NWH9 | -0.46 ± 0.064
SAFB-like transcription modulator G60I, Q9NWH9 | -0.792 ± 0.08
BAG family molecular chaperone regulator 3 E57A, O95817 | -0.317 ± 0.1
BAG family molecular chaperone regulator 3 P21A, O95817 | 0.383 ± 0.085
BAG family molecular chaperone regulator 3 P37Q, O95817 | 0.24 ± 0.16
BAG family molecular chaperone regulator 3 E57G, O95817 | -0.237 ± 0.12
SAFB-like transcription modulator R51D, Q9NWH9 | -0.783 ± 0.4
BAG family molecular chaperone regulator 3 I30T, O95817 | -0.32 ± 0.2
BAG family molecular chaperone regulator 3 G35A, O95817 | 0.335 ± 0.063
SAFB-like transcription modulator D62N, Q9NWH9 | -0.089 ± 0.05
SAFB-like transcription modulator D62T, Q9NWH9 | -0.212 ± 0.066
SAFB-like transcription modulator E67A, Q9NWH9 | -0.197 ± 0.046
BAG family molecular chaperone regulator 3 N16P, O95817 | 0.153 ± 0.14
BAG family molecular chaperone regulator 3 G15Q, O95817 | 0.828 ± 0.094
SAFB-like transcription modulator N38G, Q9NWH9 | -0.002 ± 0.047
SAFB-like transcription modulator T46M, Q9NWH9 | 0.111 ± 0.073
SAFB-like transcription modulator L34D, Q9NWH9 | -0.414 ± 0.12
BAG family molecular chaperone regulator 3 D41K, O95817 | -1.05 ± 0.41
SAFB-like transcription modulator V47G, Q9NWH9 | -0.28 ± 0.038
BAG family molecular chaperone regulator 3 R45H, O95817 | 0.367 ± 0.25
BAG family molecular chaperone regulator 3 T47V, O95817 | -0.302 ± 0.073

Substance | abundance fitness
SAFB-like transcription modulator V47C, Q9NWH9 | -0.074 ± 0.037
BAG family molecular chaperone regulator 3 A13Y, O95817 | -0.047 ± 0.46
SAFB-like transcription modulator V44T, Q9NWH9 | -0.008 ± 0.06
SAFB-like transcription modulator L52T, Q9NWH9 | -0.642 ± 0.16
SAFB-like transcription modulator S32N, Q9NWH9 | -0.407 ± 0.11
SAFB-like transcription modulator E58V, Q9NWH9 | -0.074 ± 0.06
SAFB-like transcription modulator G19A, Q9NWH9 | -0.101 ± 0.09
SAFB-like transcription modulator V27A, Q9NWH9 | -0.395 ± 0.1
BAG family molecular chaperone regulator 3 G15H, O95817 | 1.18 ± 0.16
SAFB-like transcription modulator N65Q, Q9NWH9 | -0.176 ± 0.076
SAFB-like transcription modulator P63C, Q9NWH9 | -0.134 ± 0.04
BAG family molecular chaperone regulator 3 W49L, O95817 | -0.588 ± 0.081
BAG family molecular chaperone regulator 3 S56K, O95817 | -0.136 ± 0.29
BAG family molecular chaperone regulator 3 F39H, O95817 | -0.615 ± 0.39
SAFB-like transcription modulator L25R, Q9NWH9 | -0.663 ± 0.05
SAFB-like transcription modulator K53I, Q9NWH9 | -0.369 ± 0.08
SAFB-like transcription modulator K20A, Q9NWH9 | -0.284 ± 0.039
BAG family molecular chaperone regulator 3 D41T, O95817 | -0.612 ± 0.23
BAG family molecular chaperone regulator 3 F39P, O95817 | -0.639 ± 0.19
SAFB-like transcription modulator L39Y, Q9NWH9 | -0.305 ± 0.038
BAG family molecular chaperone regulator 3 G25L, O95817 | -0.784 ± 0.19
BAG family molecular chaperone regulator 3 T34V, O95817 | 0.011 ± 0.17
BAG family molecular chaperone regulator 3 T46V, O95817 | -0.531 ± 0.14
BAG family molecular chaperone regulator 3 R19G, O95817 | -0.35 ± 0.12
SAFB-like transcription modulator G61I, Q9NWH9 | -0.415 ± 0.098

Substance | abundance fitness
SAFB-like transcription modulator K20W, Q9NWH9 | -0.284 ± 0.095
BAG family molecular chaperone regulator 3 Q33W, O95817 | -0.384 ± 0.081
SAFB-like transcription modulator R51A, Q9NWH9 | -0.437 ± 0.077
SAFB-like transcription modulator T46I, Q9NWH9 | -0.107 ± 0.073
SAFB-like transcription modulator E57G, Q9NWH9 | -0.204 ± 0.044
SAFB-like transcription modulator V47D, Q9NWH9 | -0.001 ± 0.065
SAFB-like transcription modulator Q54A, Q9NWH9 | -0.167 ± 0.083
BAG family molecular chaperone regulator 3 S56E, O95817 | -0.24 ± 0.25
SAFB-like transcription modulator E33H, Q9NWH9 | -0.512 ± 0.13
BAG family molecular chaperone regulator 3 P52W, O95817 | -0.837 ± 0.22
BAG family molecular chaperone regulator 3 W26A, O95817 | -0.534 ± 0.092
BAG family molecular chaperone regulator 3 W26R, O95817 | -0.228 ± 0.1
SAFB-like transcription modulator S32R, Q9NWH9 | -0.176 ± 0.045
BAG family molecular chaperone regulator 3 L22C, O95817 | 0.225 ± 0.16
SAFB-like transcription modulator D64A, Q9NWH9 | -0.12 ± 0.04
BAG family molecular chaperone regulator 3 S14T, O95817 | -0.084 ± 0.19
SAFB-like transcription modulator N38K, Q9NWH9 | -0.092 ± 0.047
SAFB-like transcription modulator S50Q, Q9NWH9 | -0.486 ± 0.22
SAFB-like transcription modulator L39E, Q9NWH9 | -0.365 ± 0.054
BAG family molecular chaperone regulator 3 L22P, O95817 | -0.477 ± 0.23
SAFB-like transcription modulator I49C, Q9NWH9 | -0.138 ± 0.056
SAFB-like transcription modulator S32E, Q9NWH9 | -0.03 ± 0.05
SAFB-like transcription modulator L30P, Q9NWH9 | -0.716 ± 0.067

Source: the Human Domainome abundance scans (Beltran et al. 2025)
